Results as given in patent US20160355553A1 (Janssen / Centocor, published 2016).

B1: CR8057 (antibody, V domains shown)
VH: EVQLVESGGGLVQPGGSLRLSCAASGFTDSVIFMSWVRQAPGKGLECVSIIYIDDSTYYADSVKGRFTISRHNSMGTVFLEMNSLRPDDTAVYYCATESGDFGDQTGPYHYYAMDV
VL: QSALTQPASVSGSPGQSITISCTGSSGDIGGYNAVSWYQHHPGKAPKLMIYEVTSRPSGVSDRFSASRSGDTASLTVSGLQAEDEAHYYCCSFADSNILI
B2: CR9114 (antibody, V domains shown)
VH: QVQLVQSGAEVKKPGSSVKVSCKSSGGTSNNYAISWVRQAPGQGLDWMGGISPIFGSTAYAQKFQGRVTISADIFSNTAYMELNSLTSEDTAVYFCARHGNYYYYSGMDVWGQGTTVTVSS
VL: SYVLTQPPAVSGTPGQRVTISCSGSDSNIGRRSVNWYQQFPGTAPKLLIYSNDQRPSVVPDRFSGSKSGTSASLAISGLQSEDEAEYYCAAWDDSLKGAVFGGGTQLTVL

Key:
H3 Mini-HA cluster 1+7 = H3 Mini-HA cluster 1+7 (influenza A virus H3N2, UniProt O11283 17-566); test: FACS on HEK293F [D00010 FIG. 8B]
H3 Mini-HA cluster 1+2 = H3 Mini-HA cluster 1+2 (influenza A virus H3N2, UniProt O11283 17-566); test: FACS on HEK293F [D00010 FIG. 8B]
H3 Mini-HA cluster 1 = H3 Mini-HA cluster 1 (influenza A virus H3N2, UniProt O11283 17-566); test: FACS on HEK293F [D00010 FIG. 8B]
H3 Mini-HA cluster 1+6 = H3 Mini-HA cluster 1+6 (influenza A virus H3N2, UniProt O11283 17-566); test: FACS on HEK293F [D00010 FIG. 8B]
H3 Mini-HA cluster 1+8 = H3 Mini-HA cluster 1+8 (influenza A virus H3N2, UniProt O11283 17-566); test: FACS on HEK293F [D00010 FIG. 8B]
H3 Mini-HA cluster 1+4 = H3 Mini-HA cluster 1+4 (influenza A virus H3N2, UniProt O11283 17-566); test: FACS on HEK293F [D00010 FIG. 8B]
H3 Mini-HA cluster 1+3 = H3 Mini-HA cluster 1+3 (influenza A virus H3N2, UniProt O11283 17-566); test: FACS on HEK293F [D00010 FIG. 8B]
H3mini2-cl9+10+11-GCN4 = H3mini2-cl9+10+11-GCN4 (influenza A virus H3N2); test: FACS on HEK293F [D00012 FIG. 9B]
[1] = target: H3-mini2-cl9+10+11+12-tri (influenza A virus H3N2, UniProt O11283 17-566); test: FACS on HEK293F [D00012 FIG. 9B]
H3-mini2-cl9+10 = H3-mini2-cl9+10 (influenza A virus H3N2, UniProt O11283 17-566); test: FACS on HEK293F [D00012 FIG. 9B]
H3-mini2-cl9+10+11+12 = H3-mini2-cl9+10+11+12 (influenza A virus H3N2, UniProt O11283 17-566); test: FACS on HEK293F [D00012 FIG. 9B]
H3-mini2-cl9+13 = H3-mini2-cl9+13 (influenza A virus H3N2, UniProt O11283 17-566); test: FACS on HEK293F [D00012 FIG. 9B]
H3-mini2-cl9+10+11-tri = H3-mini2-cl9+10+11-tri (influenza A virus H3N2); test: FACS on HEK293F [D00012 FIG. 9B]
[2] = target: H3-mini2-cl9+10+11+13-tri (influenza A virus H3N2); test: FACS on HEK293F [D00012 FIG. 9B]
H3-mini2 = H3-mini2 (influenza A virus H3N2, UniProt O11283 17-566); test: FACS on HEK293F [D00012 FIG. 9B]
H3-mini2-cl9+10+11+13 = H3-mini2-cl9+10+11+13 (influenza A virus H3N2, UniProt O11283 17-566); test: FACS on HEK293F [D00012 FIG. 9B]
[3] = target: H3-mini2-cl9+10+11+13-GCN4 (influenza A virus H3N2); test: FACS on HEK293F [D00012 FIG. 9B]
H3-mini2-cl9+11 = H3-mini2-cl9+11 (influenza A virus H3N2, UniProt O11283 17-566); test: FACS on HEK293F [D00012 FIG. 9B]
H3-mini4-cl9+10+11+12+14 = H3-mini4-cl9+10+11+12+14 (influenza A virus H3N2, UniProt O11283 17-566); test: FACS on HEK293F [D00012 FIG. 9B]
H3-mini2-cl9+10+11 = H3-mini2-cl9+10+11 (influenza A virus H3N2, UniProt O11283 17-566); test: FACS on HEK293F [D00012 FIG. 9B]
H3-mini3-cl9+10+11+12+14 = H3-mini3-cl9+10+11+12+14 (influenza A virus H3N2, UniProt O11283 17-566); test: FACS on HEK293F [D00012 FIG. 9B]
H3-mini2-cl9+10+12 = H3-mini2-cl9+10+12 (influenza A virus H3N2, UniProt O11283 17-566); test: FACS on HEK293F [D00012 FIG. 9B]
[4] = target: H3-mini2-cl9+10+11+12-GCN4 (influenza A virus H3N2, UniProt O11283 17-566); test: FACS on HEK293F [D00012 FIG. 9B]
[5] = target: hemagglutinin of influenza virus A/EW/MPD411/07 (H6) (influenza A virus H6); test: cell-based or functional assay
[6] = target: hemagglutinin of influenza virus A/WF/MPA 892/06 (H4) (influenza A virus H4); test: cell-based or functional assay
[7] = target: hemagglutinin of influenza virus A/Ck/HK/SSP176/09 (H9) (influenza A virus H9); test: cell-based or functional assay
[8] = target: hemagglutinin of influenza virus A/Chick/Germany/N/49 (H10) (influenza A virus H10); test: cell-based or functional assay
[9] = target: hemagglutinin of influenza virus A/Hiroshima/52/2005 (H3) (influenza A virus H3); test: cell-based or functional assay
[10] = target: hemagglutinin of influenza virus A/Brisbane/10/2007 (H3) (influenza A virus H3); test: cell-based or functional assay

Row | Binder | binding result (H3 Mini-HA cluster 1+7) | binding result (H3 Mini-HA cluster 1+2) | binding result (H3 Mini-HA cluster 1) | binding result (H3 Mini-HA cluster 1+6) | binding result (H3 Mini-HA cluster 1+8) | binding result (H3 Mini-HA cluster 1+4) | binding result (H3 Mini-HA cluster 1+3) | binding result (H3mini2-cl9+10+11-GCN4) | binding result [1] | binding result (H3-mini2-cl9+10) | binding result (H3-mini2-cl9+10+11+12) | binding result (H3-mini2-cl9+13) | binding result (H3-mini2-cl9+10+11-tri) | binding result [2] | binding result (H3-mini2) | binding result (H3-mini2-cl9+10+11+13) | binding result [3] | binding result (H3-mini2-cl9+11) | binding result (H3-mini4-cl9+10+11+12+14) | binding result (H3-mini2-cl9+10+11) | other results
1 | B1 | no binding (tested: 5 ug/ml) | no binding (tested: 5 ug/ml) | no binding (tested: 5 ug/ml) | no binding (tested: 5 ug/ml) | no binding (tested: 5 ug/ml) | no binding (tested: 5 ug/ml) | no binding (tested: 5 ug/ml) | no binding (tested: 5 ug/ml) | no binding (tested: 5 ug/ml) | no binding (tested: 5 ug/ml) | no binding (tested: 5 ug/ml) | no binding (tested: 5 ug/ml) | no binding (tested: 5 ug/ml) | no binding (tested: 5 ug/ml) | no binding (tested: 5 ug/ml) | no binding (tested: 5 ug/ml) | no binding (tested: 5 ug/ml) | no binding (tested: 5 ug/ml) | no binding (tested: 5 ug/ml) | no binding (tested: 5 ug/ml) | binding result (H3-mini3-cl9+10+11+12+14): no binding (tested: 5 ug/ml); binding result (H3-mini2-cl9+10+12): no binding (tested: 5 ug/ml); binding result [4]: no binding (tested: 5 ug/ml)
2 | B2 | no binding (tested: 5 ug/ml) | no binding (tested: 5 ug/ml) | no binding (tested: 5 ug/ml) | no binding (tested: 5 ug/ml) | no binding (tested: 5 ug/ml) | no binding (tested: 5 ug/ml) | no binding (tested: 5 ug/ml) | no binding (tested: 5 ug/ml) | no binding (tested: 5 ug/ml) | no binding (tested: 5 ug/ml) | no binding (tested: 5 ug/ml) | no binding (tested: 5 ug/ml) | no binding (tested: 5 ug/ml) | no binding (tested: 5 ug/ml) | no binding (tested: 5 ug/ml) | no binding (tested: 5 ug/ml) | no binding (tested: 5 ug/ml) | no binding (tested: 5 ug/ml) | no binding (tested: 5 ug/ml) | no binding (tested: 5 ug/ml) | virus neutralization assay on MDCK cells, geomean IC50 [5]: 10.5 µg/mL; virus neutralization assay on MDCK cells, geomean IC50 [6]: 0.8 µg/mL; virus neutralization assay on MDCK cells, geomean IC50 [7]: 6.3 µg/mL; virus neutralization assay on MDCK cells, geomean IC50 [8]: 15.7 µg/mL; virus neutralization assay on MDCK cells, geomean IC50 [9]: 12.5 µg/mL; virus neutralization assay on MDCK cells, geomean IC50 [10]: 5.6 µg/mL; binding result (H3-mini3-cl9+10+11+12+14): no binding (tested: 5 ug/ml); binding result (H3-mini2-cl9+10+12): no binding (tested: 5 ug/ml); binding result [4]: no binding (tested: 5 ug/ml)
